Where a chain is given by its changes, count along the chain named.
T1: IRF4 DBD C99A (Homo sapiens, UniProt Q15306 20-132, C99A)
T1 sequence: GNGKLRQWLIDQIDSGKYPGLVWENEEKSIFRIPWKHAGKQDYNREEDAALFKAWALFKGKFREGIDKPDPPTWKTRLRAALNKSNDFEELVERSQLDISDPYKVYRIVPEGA

T2: IRF4 DBD D117H (Homo sapiens, UniProt Q15306 20-132, D117H)
T2 sequence: T1 sequence with A80C, D98H

T3: IRF4 DBD C99S (Homo sapiens, UniProt Q15306 20-132, C99S)
T3 sequence: T1 sequence with A80S

T4: IRF4 DBD wild-type (Homo sapiens, UniProt Q15306 20-132)
T4 sequence: T1 sequence with A80C

T5: IRF4 DBD K59R (Homo sapiens, UniProt Q15306 20-132, K59R)
T5 sequence: T1 sequence with K40R, A80C

T6: IRF4 DBD D106Y (Homo sapiens, UniProt Q15306 20-132, D106Y)
T6 sequence: T1 sequence with A80C, D87Y

T7: IRF4 DBD S114N (Homo sapiens, UniProt Q15306 20-132, S114N)
T7 sequence: T1 sequence with A80C, S95N


Tests used:
IRF4 DBD C99A [1] = target: T1, IRF4 DBD C99A; test: FP; FP: PBS + 0.05% Tween20, 5 nM DNA, 1 h, room temperature; SPR: Biacore S200, SA chip, protein 0.1-4500 nM, running buffer not given in material; errors are SD; settings: protein: recombinant; tags: N-terminal His8-linker-His8-TEV, cleaved; label: 3' fluorescein (FAM); hairpin, TTTT loop
IRF4 DBD D117H = target: T2, IRF4 DBD D117H; test: as above; settings: protein: recombinant; tags: N-terminal His8-linker-His8-TEV, cleaved; label: 3' fluorescein (FAM); hairpin, TTTT loop
IRF4 DBD C99S [2] = target: T3, IRF4 DBD C99S; test: as above; settings: protein: recombinant; label: 3' fluorescein (FAM); hairpin, TTTT loop
IRF4 DBD wild-type [3] = target: T4, IRF4 DBD wild-type; test: as above; settings: protein: recombinant; tags: N-terminal His8-linker-His8-TEV, cleaved; label: 3' fluorescein (FAM); hairpin, TTTT loop
IRF4 DBD K59R = target: T5, IRF4 DBD K59R; test: as above; settings: protein: recombinant; tags: N-terminal His8-linker-His8-TEV, cleaved; label: 3' fluorescein (FAM); hairpin, TTTT loop
IRF4 DBD D106Y [4] = target: T6, IRF4 DBD D106Y; test: as above; settings: protein: recombinant; tags: N-terminal His8-linker-His8-TEV, cleaved; label: 3' fluorescein (FAM); hairpin, TTTT loop
IRF4 DBD C99A [5] = target: T1, IRF4 DBD C99A; test: SPR steady state; FP: PBS + 0.05% Tween20, 5 nM DNA, 1 h, room temperature; SPR: Biacore S200, SA chip, protein 0.1-4500 nM, running buffer not given in material; errors are SD; settings: protein: recombinant; tags: N-terminal His8-linker-His8-TEV, cleaved; label: 3' biotin; hairpin, TTTT loop
IRF4 DBD C99S [6] = target: T3, IRF4 DBD C99S; test: as above; settings: protein: recombinant; label: 3' biotin; hairpin, TTTT loop
IRF4 DBD wild-type [7] = target: T4, IRF4 DBD wild-type; test: as above; settings: protein: recombinant; tags: N-terminal His8-linker-His8-TEV, cleaved; label: 3' biotin; hairpin, TTTT loop
IRF4 DBD S114N = target: T7, IRF4 DBD S114N; test: as above; settings: protein: recombinant; tags: N-terminal His8-linker-His8-TEV, cleaved; label: 3' biotin; hairpin, TTTT loop
IRF4 DBD D106Y [8] = target: T6, IRF4 DBD D106Y; test: as above; settings: protein: recombinant; tags: N-terminal His8-linker-His8-TEV, cleaved; label: 3' biotin; hairpin, TTTT loop

| Binder | Kd (IRF4 DBD C99A [1]) [nM] | Kd (IRF4 DBD D117H) [nM] | Kd (IRF4 DBD C99S [2]) [nM] | Kd (IRF4 DBD wild-type [3]) [nM] | Kd (IRF4 DBD K59R) [nM] | Kd (IRF4 DBD D106Y [4]) [nM] | Kd (IRF4 DBD C99A [5]) [nM] | Kd (IRF4 DBD C99S [6]) [nM] | Kd (IRF4 DBD wild-type [7]) [nM] | Kd (IRF4 DBD S114N) [nM] | Kd (IRF4 DBD D106Y [8]) [nM] |
| --- | --- | --- | --- | --- | --- | --- | --- | --- | --- | --- | --- |
| CTTGGTTTCACTTCCTGCGTTTTCGCAGGAAGTGAAACCAAG (structured_DNA) [IRE hairpin (FAM)] | 353 ± 169 | 131 ± 28 | 243 ± 238 | 565 ± 191 | 350 ± 275 | 219 ± 261 |  |  |  |  |  |
| CTTGGTTTCACTTCCTGCGTTTTCGCAGGAAGTGAAACCAAG (structured_DNA) [IRE hairpin (biotin)] |  |  |  |  |  |  | 173 ± 60 | 338 ± 173 | 402 ± 165 | 291 ± 79 | 178 ± 43 |
